Here are results for two molecules from patent US20240116999A1 (TRUSTEES OF INDIANA UNIVERSITY, published 2024).

The target of this assay is glucagon receptor (GCGR). Briefly: cell-based or functional assay.

Bridge positions count the residues as written; N and C are the ends. Square brackets hold non-standard residues; d marks the D form. Ends that are not written are not given here. Orn = NCCC[C@H](N)C(=O)O

On to HSQGTFTSDYS[Orn]KLDSE[Orn]AQDFVQWLMNTEEK (lactam 13-17) [O12, O18, K13, E17-Lactam-Glucagon-EEK], for which the “EC50, cell-based cyclic AMP (cAMP) activity assay” value is 126 nM.

In the case of HSQGTFTSDYS[Orn]YLDS[Orn][Orn]AQDFVQWLMNTEEK [Glucagon-EEK], the “EC50, cell-based cyclic AMP (cAMP) activity assay” value came out at 93.5 nM.
